According to patent US20160202245A1 (MERZ PHARMA, published 2016):
Changes are numbered by the printed parent chain.

B1: mouse monoclonal antibody 20-2-5 (antibody, V domains shown)
VH: EVNLVESGGDLVKPGGSLKLSCAVSGFTFSGYAMSWVRQTPEKRLEWVASIATNGSTYYPDTVKGRFTIFRDNARNILYLQMSSLRSEDTAIYYCTRLRGFDNWGQGTTLTVSS
VL: DVLMTQIPLSLPVSLGDQASISCRSSQNIVHSNGNTYLEWYLQKSGQSPKLLIYKVFKRLSGVPDRFSGSGSGTDFTLRISRVEAEDLGVYYCFQGSHVPYTFGGGTKLEIK
B2: mouse monoclonal antibody 16-5-4 (antibody, V domains shown)
VH: EVKLVESGGDLVKPGGSLKLSCAASGFTFNTYAMSWVRQTPEKRLEWVASISSNGSTYHPESVKGRFTISRDIARNILNLQMSSLRSEDTAIYYCSRLRGFDYWGQGTTLTVSS
VL: B1 VL with I7T, N28S, S45P, L51P, L60F, R79K
B3: mouse monoclonal antibody 1-10-4 (antibody, V domains shown)
VH: EVKLVESGGDLVKPGGSLKLSCAVSGFSLNTYAMSWVRQTPEQRLEWVASISTNGSTYHSDSVKGRFTISRYNARNILYLQMSSLRSEDSAIYYCTRLRGFDYWGQGTTLTVSS
VL: B1 VL with V2I, I7T, P12S, S45P, L51P, V56L, F57S, L60F, D75Y, R79K
B4: mouse monoclonal antibody 18-3-3 (antibody, V domains shown)
VH: EVKLVESGGGLVKPGGSLKLSCAASGFTFRSYAVSWVRQTPEKRLEWVASISTNGSTYYPDSMKGRFTISRDTARNILYLEMNSLRSEDTAMYYCARLRGFDYWGQGTPLTVSS
VL: B1 VL with I7T, N28S, S45P, F57S, L60F, R79K, S81T
B5: mouse monoclonal antibody 6-3-8 (antibody, V domains shown)
VH: EVKLVEFGGGLVEPRGSLKLSCAASGFTFSTYAMSWVRQTPEKRLEWVASIASNGSTYYPDSVRGRFTISRDNARNILYLQMSSLRSEDTAMYYCSRLRGFDYWGQGSTLTVSS
VL: B1 VL with N28S, S45P, K50S, D75E, R79K, S81N
B6: mouse monoclonal antibody 14-12-1 (antibody, V domains shown)
VH: EVKLVESGGDLVKPGGSLKLSCAASGFTLSDYAMSWVRQSPEERLEWVASISTNGSTYYPDSVKGRFTISRDNARNILSLQMSSLRSEDTAIYYCTRLRGFDNWGQGTLLTVSS
VL: B1 VL with I7T, I53M, F57S, S70R, R79K
B7: mouse monoclonal antibody 5-10-5 (antibody, V domains shown)
VH: DVQLQESGPGLVKPSQSLSLTCTVTGFSITSDYAWNWIRQFPGNKLEWMGYISYKYGTRYNPSLKGRISITRDTSKNQFFLQLNSLTTEDTAIYYCARRGTDGYGFAYWGQGTLVTVSA
VL: DIVLTQSPASLGVSLGQRATISCRASESVSSSGYSYIHWYQQRPGQPPKLLIFLASNLESGVPARFSGSGSGTDFTLNIHPVEEEDAATYYCQHSRELPLTFGAGTKLELK

Target: T1, non-cleaved SNAP-25206 (UniProt P60880 1-206)
T1 construct: range 1-206
Test: ELISA and Western blots

Row | Binder | binding result
1 | B1 | no binding
2 | B2 | no binding
3 | B3 | no binding
4 | B4 | no binding
5 | B5 | no binding
6 | B6 | no binding
7 | B7 | no binding
